Test results from the nanobody polyreactivity screen of Harvey et al. (2022).

Experiment: yeast display, Sf9 membrane polyspecificity reagent, FACS + sequencing; frameworks hold sequencing errors
Procedure, shortened: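 In a synthetic yeast display library (Saccharomyces cerevisiae BJ5465), nanobody expression was induced with galactose for 36–48 hours. FACS gates were set low and high (top ~1%) using anti-HA fluorescence for expression and streptavidin fluorescence for binding of the Sf9 membrane reagent. Each polyreactivity label is drawn from the gate of origin.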

Sequence	polyreactivity (PSR sort gate)
QVQLVESGGGLVQAGGSLRLSCAASGRIFYKNAMGWYRQAPGKERELVATITYSDGTTYYADSVKGRFTISRDNAKNTVYLQMNSLKPEDTAVYYCAAQTDSVESDYWGQGTQVTVSS	low polyreactivity
QVQLVESGGGLVQAGGSLRLSCAASGSTFYYYAMGWYRQAPGKERELVAVIRDSDGSTDYADSVKGRFTISRDKAKNTVYLQMNSLKPEDTAVYYCAATNVRGVYYWGQGTQVTVSS	high polyreactivity
QVQLVESGGGLFQAGGSLRLSCAASGSIFYINAMGWYRQAPGKERELVAAISQSDGSTYYADSVKGRFTISSDNAKNTVYLQLNSLKPEDTAVYYCAADAYVLFYGDWYEFDYWGQGTQVTVSS	high polyreactivity
QVQHVESGGGLVQAGGSLRLSCAASGSIFVNNAMGWYRQAPGKERELVAAIRRSGGNTYYADSVKGRFTISRDNAKNTVYLQMNSLKPEDTAVYYCNVVRRADSIRAKSRDYWGQGTQVTVSS	high polyreactivity
QVQLVESGGGLVQAGGSLRLSCAASGSTFSKKAMGWYRQAPGKERELVAAITGRGGNTYYADSVKGRFTLSRDNAKNTVYLQMNSLKPEDTAVYYCAASWATYWFYRKAYNYWGQGTQVTVSS	high polyreactivity
QVQLVESGGGLVQAGGSLRLSCAASGFTFRKYAMGWYRPAPGKERELVAGITSGGSTNYADSVKGRFTISRDNAKNTVYLQMNSLKPEDTSVYYCNAARYYAYIGDYWGQGTQVTVSS	high polyreactivity
QVQLVESGGGLVQAGGSLRLSCAASGFIFGYYAMGWYRQAPGKERELVAAINGSGGSTYYADSVKGRFTISRDNAKNTVYLQMNSLKPEDTAVYYCNADVVPQYYSWGQGTQVTVSS	low polyreactivity
QVQLVESGGGLVQAGGSLRLSCAASGSTFGSNAMGWYRQAPGKERELVAAITGGDVSTYYADSVKGRFTISRDNAKNTDYLQMNSLKPEDTAVYYCNAEYARPAMDYWGQGTQVTVSS	low polyreactivity
QVQLVESGGGLVQAGGSLRLSCAASGFTFYTNAMGWYRQAPGKERELVAAISKRGASTYYADSVKGRFTISRDNAKNTVYLQMNSLKPEDTAVYYCAASSRTHGSYDYWGQGTQVTVSS	high polyreactivity
QVQLVESGGGLVQAGGSLRLSCAASGSTFPTNAMGWYRQAPGKERELVAAISQRGDSTSYADSVKGRFTISRDNAKNTVYLQMNSLKPEDTAVYFCAVDAYSYYDSTWFWYDYWGQGTQVTVSS	high polyreactivity
QVQLVESWGGLVQAGGSLRLSSAASGSIFYHYAMGWYRQAPGKERELVAAISWRGASTYYADSVKGRFTISRDNAKNTVYLQMNSLKPEDTAVYYCARLSSSHPLYRDDYWGQGTQVTLSS	high polyreactivity
QVQLVESGGGLVQAGGSLRLSCAASGSTFYSNAMGWYRQAPGKERELVAAINYSGGRTYYADSVKGRFTLSRDNAKNTVYLQMNSLKPEDTAVYYCNAQFYNVRGYYIGEYWGQGTQVTVSS	high polyreactivity
QVQLVESGGGLVQAGGSLRLSCAASGFIFPLYAMGWYRQAPGKERELVAAITWRGDTTSYADSVKGRFTISRDNAKNTVYLQMNSLKPEDTAVYYCAAVRYPSGYDYWGQGTQVTVSS	high polyreactivity
QVQLVESGGGLVQAGGSLRLSCAASGGTFENYPMGWYRQAPGKERELVAAISSGGSTNYADSVKGRFTISRDNAKNTVYLQMNSLKPEDTAVYYCARYRVWGSNGHKLFHYDYWGQGTQVTVSS	low polyreactivity
QVQLVESGGGLVQAGGSLRLSCAASGITFVRNAMGWYRQAPGKEREFVAAISGSGVSTYADSVKGRFTISRDNAKNTVYLQMNSLKQEDTAVYYCNTDEWYHFYHGSHKYDYWGQGTQVTVSS	low polyreactivity
QVQLVESGVGLVQAGGSLRLSCAASGIIFASNGMGWYRQAPGKERELVAAISSGGSTNYADSVKGRFTISRDNAKNTVYLQMNSLKPEDTAVYYCAADRWNREYDYWGQGTQVTVSS	low polyreactivity
QVQLVESGGGLVQAGGSLRLSCAASGSIFAAYTMGWYRQAPGKERELVAAISVSTVSTYYADSVKGRFTISRDNAKISVYLQMNSLKPEDTAVYYCNADSTTQDYDYWGQGTQVTVSS	low polyreactivity
QDQLVESGGGIVQAGGTLRLSCAASGRTIGGYDMGWDRQAPGKERQLVAAIRTGGRTNYADSVKGRFTISRDNAKNTVYLQLNSLKPEDTAVYYCNARRRIADPRAGIYDYCGQGTQVTVSS	high polyreactivity
QVQLVESGGGLVQAGGSLRLSCAASGSIFGIYAMGWYRQAPGKERELVAAIDSSGTSTYYADSVKGRFTISRDNAKNTVYLQMNSLKPEDTAVYYCAAYHRISKNNYLGQGTQVTVSS	low polyreactivity
QVQLVESGGGLVQAGGSLRLSCAASGRIFSSYAMGWYRQAPGKERELVAAISRSGARTYYADSVKGRFTISRDNAKNTVYLQMNSLKPEDTAVYYCAAVTVAGYDYWGQGTQVTVSS	high polyreactivity
QVQLVESGGGLVQAGGSLRLSCDASGSSFDYYARGWYRQAPGTERELVAAITSTGRTYYADSVKGRFTISRDNAKNTVYLQMNSLKPDDTAVYYCAADQPWGPLFDYWGQGTQVTVSS	low polyreactivity
QVQLVESGRGLVQAGGSLRLSCAASGFTFVWYAMGWYIPAPGKERELVAAISRRGTRTYYADSVKGRFTISRDNAKNTVYLQMNSLKPEDTAVYYCASESILGYDYWGQSTQVTVSS	high polyreactivity

Sequence	polyreactivity (PSR sort gate)
QVQLVESGGGLVQAGGSLRLSCAASGSTFSHYAMVWYRQAPGKERELVATITGTGVRTYYADSVKGRFTISRDNAKNTVYLQMNSLKPEDTAVSYCAVPPSKRGAQAQPWMDYWGQGTQVTVSS	low polyreactivity
QVQLVESGGGLVHAGGSLRLSCAASGRLFYPYAMGWYRQAPGKERELVAAITYITGSTYADSVKGRFTISRDNAKNTVYLQMNSLKPEDTAVYYCAADYESGDYWGQGTQVTVSS	low polyreactivity
QVQHVESGGGIVQAGGSLRLSCAASGHIFFYYTMGWYRQAPGKERELVAGITIGGSTNYADSVKGRFTISRDNAKNTVYLQMNSLKPEDTAVYYCNVVKYVYIYSYWEYYYWGQGTQVTVSS	low polyreactivity
QVQLVESGGGLVQAGGSLRLSGAASGSTFRYYVMGWYRQAPGKERELVAGISYRGGTTYYADSVKGRFTISRDNAKNTVYLQMISLKPEDTAVYYCNAETAAAQASFDRLYVLLDYWGQGTQVTVSS	low polyreactivity
QVQLVESGGGLVQAGGSLRLSCAASGTFGVYAMGWYRQAPGKERELVAVITDSGGTNYADSVKGRFTISRDNAKNTVYLQMNSLKPEDTAVYYCNTDAGDYYGENYWGQGTQVTVSS	low polyreactivity
QVQLVESGGGLVQAGGSLRLSCAASGRILYGYTMGWYRQAPGKEREFVATITRGGSTYYADSVKGRFTISRDNAKNTVYLQMNSLKPEDTAVYYCAAELSLATPTVPWYLYNYWGQGTQVTVSS	low polyreactivity
QVQLVESGGGLVQAGGSLRLSCAASGSIFASNAMGWYRQAPGKERGLVAAITYNGGSTYYADSVKGRFTISRDNAKNTVYLQMNSLKPEDTAVYYCAALGTRRPHIPRGDYWGQGTQVTVSS	low polyreactivity
QVQLVESGGGIVQAGGSLRLSCAASGLILANNAMGRYRQAPGKETELVATISSSGGRTSYADSVKGRFTISRDNAKNTVYLQMNSLKPEDTAVYYCAKYCGRYPHGRSWYDYWGQGTQVTVSS	high polyreactivity
QVQLVESGGGLVQAGGSLRLSCAASGRIIARNAMGWYRQAPGKEREFVAAITARGARTYYADSVKGRFTISRDNAKNTVYLQMNSLKPEDTAVYYCAVVQGNVYYTGDDYWGQGTQVTVSS	high polyreactivity
QVQLVESGGGLVQAGGSLRLSCAASGTTFVIYAKGWYRQAPGKERELVASISGSGGSTFYADSVKGRFTISRDNAKITVYLQMNSLKPEDTAVYYCAAAVGVGRSGGTYDYWGQGTQVTVSS	low polyreactivity
QVQLVESGGGLVQAGGSLRLSCAASGIIFGWYAMGWYRQAPGKERELVAAISYSGGSTYYADSVKGRFTISRDNAKNTVYLQMNSLKPEDTAVYYCAVQRYWGQGTQVTVSS	high polyreactivity
QVQLVESGGGLVQAGGSLRLSCAASGSTFTYYAMGWYRQAPGNEREFVASLTYRGGRTNYADSVKGRFTISRDNATNTVYLQMNRQKPEDTAVYYCAARQRWTYAYDYWGQGTQVTVSS	high polyreactivity
QVQIVESRGGLVQAGGSLSLSCAASGRIFDYYAMGWYRQPPGKERELVAAISSSVGNTYYADSVKGRFTISRDNSKNTVYLQMNSLKPEVTAVYYCADYSYVRSSYEVEYDYWGQGTQVTVSS	low polyreactivity
QVQLVESGGGLFQAGGSLRLSCAASGSTFQYNAMGWYRQAPGKERELVARITSGGRTDYADSVKGRFTITRDNAKNTVYLQMNSLKPEDTAVYYCAARYGYRGSTKYLSKPFYYWGQGTQVNVSS	high polyreactivity
QVQLQESAGARQPAPELRGERIYFWLLLMCWYRQAPGEERELVAGINDGASTNYADSVKGRFTISRDNARNTVYLKMNSLKPGDTAVYYCAVWQPVLIWFYYWGQGTHVTVSS	high polyreactivity
QVQLVESGGGLVQAGGSLRLSCAASGTIFTHNAMGWYRQAAGKEREFVAAISSGGSTNYADSVNGRFTISRDNAKNTVYLQMNSLKPQDTAVYYCAKSIDGWYWRRRRYDYWGHGTQVTVSS	low polyreactivity
QLQLVESGGVLVQAGGSLRLSCAASGTFYGYVMGWYRQAPGKERELGASINWSGGSTNYADSVKGRFTISRDNAKNTVFFQMNSRKPEDTAVYYCNADWGWGAYDYWGQGTQVTVSS	low polyreactivity
QVQLVESGGGLVQAGGSLRLSCAASGRTFYKYGMGWYRQAPGKERELVAAISWRTTSTYYADSVKGRFTISRDNAKNTVYLQMNSLKPEDTAVYYCNARRYLYFYGRGAQELDYWGQGTQVTVSS	high polyreactivity
QLQLVESGGRLVQAGGSLRLSCAASGFIFRWNAMGCYIQAPGKASEFVAAITSSTGSTYYAVSVKGRFTISRDNAKNTVYLQMNSLKPEDTAVYDCAADKRGTVYLSSFWMDYWGQGTQVTVSS	low polyreactivity
QVQLVESGGGLVQAAGSLRLSYAASGSTFVYNGMGSYRQAPAKERELVATISSTGSTNYADSVKGRFTISRDNAKNTVYLQMNSLKPEDTAVYYCATEYITYRAYDYWGQGTQVTVSS	low polyreactivity
QVQLVESGGAVVHAGGSLRLSCAASGFTFRYYDKGWYRQAHGKEMELVAAISSGGSTDYADSVKGRFTISRDNAKNTVYLQMNCLKPEDNAVYYCAADWWVVYTYDYWGPGTQVTVSS	low polyreactivity
